According to patent US20210380699A1 (published 2021):

Legend:
[1] = target: T1, Human PD-L1 expressed on cells (human, UniProt Q9NZQ7 19-290); assay: flow cytometry on CHO hPD-L1 cells, competitor biotin-CD80-Fc, n = 2
T1 construct: One entry used for transfected and natively expressing cells; also called CHO-S hPD-L1; CHO human PD-L1
Procedure: (§1) 150 μL FACS buffer is added and cells washed as described above. […] Cells are incubated at 4° C. for 60 minutes. Cells are washed twice with 150 μL FACS buffer, centrifuging at 300 g for 3 minutes after each wash step and aspirating supernatant. Cells are fixed, washed and resuspended for analysis as above. APC signal intensity (geometric mean) is measured by flow cytometry using a Beckman Coulter CYTOFLEX instrument. Data is plotted as percentage of receptor binding.
(§2) All other steps are performed as per plate 2.

[2] = target: T1, Human PD-L1 expressed on cells; assay: flow cytometry on CHO hPD-L1 cells, competitor biotin-CD80-Fc, n = 1
Procedure: as §1, §2

[3] = target: T2, Human PD-L1 His (human PD-L1 ECD with C-terminal His tag) (human, UniProt Q9NZQ7 19-238); assay: ELISA, biotin-PD-L1 to plate-bound CD80, antibody titrated
T2 construct: Biotinylated in ELISA and AlphaScreen assays; also called hPD-L1-his; biotinylated PD-L1 his
Procedure: (§3) Excess protein was removed by washing with PBS-Tween (0.1% v/v) and the wells were blocked with 1% w/v bovine serum albumin (BSA, Sigma) in PBS for 1 hour at room temperature, after which plates were washed with PBS-Tween as above. 60 μL of a titration (three-fold serial dilution) of antibody was added to a 96-well, non-binding plate diluted in ELISA assay buffer (PBS +0.1% BSA). […] The plate was incubated for 30 minutes before transferring 50 μL to the coated plates. The coated plates were incubated for 1 hour at room temperature. Excess protein was removed by washing with PBS-Tween (0.1% v/v). PD-L1 binding was detected using streptavidin labelled europium (Perkin Elmer) diluted 1/1000 in DELFIA assay buffer (Perkin Elmer). The plates were washed with TBS (Tris buffered saline)-Tween (0.1% v/v) and 50 μL/well of DELFIA Enhancement solution (Perkin Elmer) was added to the plate. Time-resolved fluorescence was measured at 615 nm on an Envision plate reader (PerkinElmer). Percentage specific binding was calculated as defined in Equation 3. IC50 values were determined using GraphPad Prism software by curve fitting using a four-parameter logistic equation (Equation 4). Values for KM121 antibodies are a mean of three independent experiments. Values for KM122 are from a single experiment.

[4] = target: T2, Human PD-L1 His (human PD-L1 ECD with …); assay: SPR 25C, antibody captured, PD-L1 analyte
Procedure: (§4) Label-free surface plasmon resonance (SPR) analysis was carried out on the ProteOn XPR36 (BioRad) array SPR machine. An anti-human IgG capture surface was created on a GLC biosensor chip using a combination of anti-human Fc antibodies (Jackson Labs 09-005-008,109-006-008 and 309-006-008) by amine coupling. […] The data was analysed using the 1:1 model inherent to the ProteOn XPR36 analysis software.

[5] = target: T3, Cyno PD-L1 FLAG (cynomolgus PD-L1 ECD with FLAG tag) (cynomolgus monkey); assay: SPR 25C, antibody captured, PD-L1 analyte
T3 construct: also called cynomolgus monkey PD-L1-FLAG
Procedure: as §4

[6] = target: T1, Human PD-L1 expressed on cells; assay: flow cytometry on CHO hPD-L1 cells, competitor biotin-PD-1-Fc, n = 2
Procedure: as §1

[7] = target: T1, Human PD-L1 expressed on cells; assay: cell-based or functional assay
[8] = target: T2, Human PD-L1 His (human PD-L1 ECD with …); assay: ELISA, biotin-PD-L1 to plate-bound PD-1, antibody titrated
Procedure: as §3

[9] = target: T4, Mouse PD-L1 ECD His (mouse, UniProt Q9EP73 19-239); assay: SPR 25C and 37C
T4 construct: also called mouse PD-L1 (his-tagged)

[10] = target: T2, Human PD-L1 His (human PD-L1 ECD with …); assay: SPR 37C, antibody captured, PD-L1 analyte
[11] = target: T3, Cyno PD-L1 FLAG (cynomolgus PD-L1 ECD …); assay: SPR 37C, antibody captured, PD-L1 analyte
[12] = target: T1, Human PD-L1 expressed on cells; assay: flow cytometry on CHO hPD-L1 cells, competitor biotin-PD-1-Fc, n = 1
Procedure: as §1

[13] = target: T1, Human PD-L1 expressed on cells; assay: cell-based or functional assay; remark: listed apart in the source
[14] = target: T1, Human PD-L1 expressed on cells; assay: cell-based or functional assay; remark: listed apart in the source
[15] = target: T2, Human PD-L1 His (human PD-L1 ECD with …); assay: SPR 25C, antibody captured, PD-L1 analyte; remark: listed apart in the source

T1 sequence (Q9NZQ7 19-290 limits assumed): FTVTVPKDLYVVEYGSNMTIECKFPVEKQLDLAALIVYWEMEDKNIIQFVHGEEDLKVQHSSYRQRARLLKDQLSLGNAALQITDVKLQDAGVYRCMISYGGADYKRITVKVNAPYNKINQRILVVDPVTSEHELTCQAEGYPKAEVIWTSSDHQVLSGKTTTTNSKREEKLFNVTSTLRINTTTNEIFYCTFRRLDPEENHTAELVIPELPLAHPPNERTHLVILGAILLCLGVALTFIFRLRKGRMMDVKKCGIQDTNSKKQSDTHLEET
T2 sequence (Q9NZQ7 19-238 limits assumed): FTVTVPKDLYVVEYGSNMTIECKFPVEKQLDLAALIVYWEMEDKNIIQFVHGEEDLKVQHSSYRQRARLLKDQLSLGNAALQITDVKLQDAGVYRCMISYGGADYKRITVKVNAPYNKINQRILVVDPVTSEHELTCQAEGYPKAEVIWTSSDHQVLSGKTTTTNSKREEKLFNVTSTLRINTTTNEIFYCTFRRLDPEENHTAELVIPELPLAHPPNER
T3 sequence (chain, as listed by the source limits assumed): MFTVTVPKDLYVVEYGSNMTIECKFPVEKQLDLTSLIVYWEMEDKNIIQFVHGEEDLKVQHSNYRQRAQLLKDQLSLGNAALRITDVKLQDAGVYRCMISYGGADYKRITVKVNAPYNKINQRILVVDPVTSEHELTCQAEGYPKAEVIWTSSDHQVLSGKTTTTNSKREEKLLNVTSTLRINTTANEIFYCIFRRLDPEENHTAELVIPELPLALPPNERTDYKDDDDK
T4 sequence (Q9EP73 other isoform, or with tags, fused parts or gaps): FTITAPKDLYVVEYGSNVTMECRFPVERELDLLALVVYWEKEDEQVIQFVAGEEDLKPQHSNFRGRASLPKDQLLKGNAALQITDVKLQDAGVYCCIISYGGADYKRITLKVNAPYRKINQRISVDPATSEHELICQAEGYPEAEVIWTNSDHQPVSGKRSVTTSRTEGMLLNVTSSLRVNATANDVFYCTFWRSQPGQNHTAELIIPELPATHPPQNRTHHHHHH

Binder	IC50 [3] [nM]	IC50 [8] [nM]	Kd [15] [nM]	further results
416E01 (human IgG1) (antibody, V domains shown) VH: EVQLAESGGGLVQPGGSLRLSCAASGFTFSNYAMSWVRQTPGKGLEWVSAISFSGGTTYYADSVKGRFTISRDNSKNTLYLHMNSLRADDTAVYYCAKDEAPAGATFFDSWGQGTLVTVSS VL: DIQMTQSPSSVSASVGDRVTITCRASQGIRRWLAWYQQKPGKAPKLLISGASSLQSGVPSRFSGSGSGTDFTLIITSLQPEDFATYYCQQANSFPITFGQGTRLEIKR	0.98	1.72	–	IC50 [1]: 0.89 nM; IC50 [2]: 1.04 nM; Kd [4]: 0.193 nM; Kd [5]: 0.411 nM; IC50 [6]: 0.89 nM; EC50, ADCC reporter assay, n = 1 [7]: 0.08 nM; EC50, ADCC reporter assay, n = 2 [7]: 0.0106 nM; EC50, ADCC reporter assay, n = 3 [7]: 0.0229 nM; max fold induction, ADCC reporter assay, n = 1 [7]: 32.1 fold; max fold induction, ADCC reporter assay, n = 2 [7]: 33.8 fold; max fold induction, ADCC reporter assay, n = 3 [7]: 60.2 fold; binding result [9]: no binding; Kd [10]: 0.511 nM; Kd [11]: 0.998 nM; IC50 [12]: 0.81 nM; EC50, IL-2 induction, murine T cell hybridoma assay, n = 1 [13]: 0.19 nM; EC50, IL-2 induction, murine T cell hybridoma assay, n = 2 [13]: 0.15 nM; EC50, IL-2 induction, murine T cell hybridoma assay, n = 3 [13]: 0.14 nM; mean EC50, IFNγ induction, monocyte-T cell co-culture [14]: 0.064 nM; mean fold increase IFNγ, monocyte-T cell co-culture [14]: 2.23 fold
1D05 V to A & F to S change in VH (Seq ID No: 342), IgG1 disabled (LAGA), with 1D05 kappa (antibody, V domains shown, Entry 342 is a whole heavy chain; also called 1D05 HC mutant 4) VH: EVQLVESGGGLVQPGRSLRLSCAASGFTFDDYAMHWVRQAPGKGLEWVSGISWIRTGIGYADSVKGRFTISRDNAKNSLYLQMNSLRAEDTALYYCAKDMKGSGTYGGWFDTWGQGTLVTVSS VL: not shown	–	–	0.23	–
1D05 F to S change in VH (Seq ID No: 48), IgG1 disabled (LAGA), with 1D05 kappa (antibody, V domains shown, Entry 48 is a whole heavy chain; also called 1D05 HC mutant 2) VH: EVQLVESGGGLVQPGRSLRLSCAASGFTFDDYAMHWVRQVPGKGLEWVSGISWIRTGIGYADSVKGRFTISRDNAKNSLYLQMNSLRAEDTALYYCAKDMKGSGTYGGWFDTWGQGTLVTVSS VL: not shown	–	–	0.23	–
1D05 F to S change in VH (Seq ID No: 48), IgG1 disabled (LAGA), with 1D05 kappa V to A change (Seq ID No: 50) (antibody, V domains shown, See note of m59) VH: EVQLVESGGGLVQPGRSLRLSCAASGFTFDDYAMHWVRQVPGKGLEWVSGISWIRTGIGYADSVKGRFTISRDNAKNSLYLQMNSLRAEDTALYYCAKDMKGSGTYGGWFDTWGQGTLVTVSS VL: not shown	–	–	1.94	–
1D05 V to A & F to S change in VH (Seq ID No: 342), IgG1 disabled (LAGA), with 1D05 kappa V to A change (Seq ID No: 50) (antibody, V domains shown, See note of m60) VH: EVQLVESGGGLVQPGRSLRLSCAASGFTFDDYAMHWVRQAPGKGLEWVSGISWIRTGIGYADSVKGRFTISRDNAKNSLYLQMNSLRAEDTALYYCAKDMKGSGTYGGWFDTWGQGTLVTVSS VL: not shown	–	–	1.94	–
1D05 V to A change in VH (Seq ID No: 47), IgG1 disabled (LAGA), with 1D05 kappa (antibody, V domains shown, Listing entry 47 is a whole heavy chain said to carry the IgG1 disabled (LAGA) constant region; also called 1D05 HC mutant 1) VH: EVQLVESGGGLVQPGRSLRLSCAASGFTFDDYAMHWVRQAPGKGLEWVSGISWIRTGIGYADSVKGRFTIFRDNAKNSLYLQMNSLRAEDTALYYCAKDMKGSGTYGGWFDTWGQGTLVTVSS VL: not shown	–	–	0.33	–
1D05 V to A change in VH (Seq ID No: 47), IgG1 disabled (LAGA), with 1D05 kappa V to A change (Seq ID No: 50) (antibody, V domains shown, See note of m58) VH: EVQLVESGGGLVQPGRSLRLSCAASGFTFDDYAMHWVRQAPGKGLEWVSGISWIRTGIGYADSVKGRFTIFRDNAKNSLYLQMNSLRAEDTALYYCAKDMKGSGTYGGWFDTWGQGTLVTVSS VL: not shown	–	–	2.8	–
1D05 - IgG1 disabled (LAGA) with 1D05 kappa, V to A change (Seq ID No: 50) (antibody, V domains shown, also called 1D05 LC mutant 1) VH: EVQLVESGGGLVQPGRSLRLSCAASGFTFDDYAMHWVRQVPGKGLEWVSGISWIRTGIGYADSVKGRFTIFRDNAKNSLYLQMNSLRAEDTALYYCAKDMKGSGTYGGWFDTWGQGTLVTVSS VL: not shown	–	–	2.66	–
411B08 (antibody, human IgG1, kappa, V domains shown) VH: EVQLVESGGGLVQPGGSLRLSCAASGFTFSSYWMSWVRQAPGKGLEWVANIKEDGSEKYYVDSVKGRFTISRDNAKNSLYLQMNSLRAEDTSVYYCARNRLYSDFLDNWGQGTLVTVSS VL: DIQMTQSPSSVSASVGDRVTITCRASQGVSSWLAWYQQKSGKAPKLLIYGASSLQSGVPSRFSGSGSGTEFILTISSLQPEDFATYYCQQANSIPFTFGPGTKVDIKR	1.6	2.22	–	–
411C04 (antibody, human IgG1, kappa, V domains shown) VH: EVQLVDSGGGLVQPGGSLRLSCAASGFTFSSYWMSWVRQAPGKGLEWVANIKEDGSEKYYVDSLKGRFTISRDNAKNSLYLQMNSLRAEDTSVYYCARVRLYSDFLDYWGQGTLVTVSS VL: DIQMTQSPSSVSASVGDRVTITCRASQGVSSWLAWYQQKSGKAPKLLIYGASSLQSGVPSRFSGSGSGTEFILSISSLQPEDFATYYCQQANSIPFTFGPGTKVDIKR	1.93	2.45	–	–
411D07 (antibody, human IgG1, kappa, V domains shown) VH: QVQLQESGPGLVKPSGTLSLTCIVSGGSIISSDWWNWVRQPPGKGLEWIGEIFHSGRTNYNPSLKSRVTISIDKSKNQFSLRLSSVTAADTAVYYCARDGSGSYWGQGTLVTVSS VL: not shown	9.06	–	–	–
386H03 (antibody, human IgG1, kappa, V domains shown) VH: QVQLQESGPGLVKPSGTLSLTCAVSGGSISSSDWWSWVRQPPGKGLEWIGEIFHSGNTNYNPSLKSRVTISVDKSKNQISLRLNSVTAADTAVYYCVRDGSGSYWGQGTLVTVSS VL: not shown	0.74	–	–	–
385F01 (antibody, human IgG1, kappa, V domains shown) VH: EVQLVESGGGLVQPGGSLRLSCAASGFTFSSYWMSWVRQAPGKGLEWVANIKEDGSEKYYVDSVKGRFTISRDNAKNSLYLQMNSLRAEDTSVYYCARNRLYSDFLDNWGQGTLVTVSS VL: DIQMTQSPSSVSASVGDRVTITCRASQGVSSWLAWYQQKSGKAPKLLIYGASSLQSGVPSRFSGSGSGTEFILTISSLQPEDFATYYCQQANSIPFTFGPGTKVDIKR	1.76	2.25	–	–
389A03 (antibody, human IgG1, kappa, V domains shown) VH: QLQESGPGLVKPSETLSLTCTVSGGSISSSSYYCGWIRQPPGKGLDWIGSIYSTGYTYYNPSLKSRVTISIDTSKNQFSCLILTSVTAADTAVYYCAISTAAGPEYFHRWGQGTLVTVSS VL: not shown	13.2	–	–	–
413D08 (antibody, human IgG1, kappa, V domains shown) VH: QVQLVESGGGVVQPGRSLRLSCAASGFTFRIYGMHWVRQAPGKGLEWVAVIWYDGSNKYYADSVKGRFTISRDNSDNTLYLQMNSLRAEDTAVYYCARDMDYFGMDVWGQGTTVTVSS VL: DLQMTQSPSSLSASVGDRVTITCRASQGIRNDLGWYQQKPGKAPKRLIYAASSLQSGVPSRFSGSGSGTEFTLTISSLQPEDFATYYCLQHNSYPRTFGQGTKVEIKR	0.67	1.2	–	–
